Data on 15 molecules can be found in patent US20160040149A1, “Compositions Having Dicamba Decarboxylase Activity and Methods of Use” (priority 2013, published 2016).

B1: 33 (protein, listed as Rhizobium leguminosarum)
chain: MAQGKIALEEHFAIPETLQDSAGFVPGDYWKELSARLLDIQEKRLRLMDAHGIEKMILSLNAPAVQAIPDRAKALEISRRANDFLAEQCVKNPNRFLGFAALPLQDPDAATQELQRCVTTMGFVGALVNGFSQEGDGTTPLYYDLPQYRSFWAEVEKLNVPFYLHPRNPLPQDSRIYAGHSWLMGPTWAFAQETAVHALRLMGSGLFDEHPALRIIVGHMGEGLPYMMWRIDNRNAWVKVEKSYPAKRPIADYFNENFYITTSGNFRTQSLIDAMLEIGADRILFSADWPFENIDHAANWFDSATISEADRLKIGRTNAVSLFKLDR
B2: 34 (protein)
chain: MAQGKIGLEEHFAIPETLNDSAGFVPGDYWKELSRRLLDIQDDRLRQMDENGMEMMLLSLNAPAVQAVPDRKQACELAVRANDFLAEQVSRRPDRFQALAALPLQDPDFATVELTRCVNELGMRGALVNGFSQIDTPDNVVYYDAPQYASFWAAVEKLDVPFYLHPRNPIASWAQIYDGHPWLLGPTWAFGQETAVHALRLMASGLFDRHPALQIVLGHLGEGLPYSLWRIDNRNAWVKAPKTHPAKKTFRHYFQQNFHLTTSGNFHNQTLIDAILEIGADRILFSTDWPFENIDHAAKWFDSASISEADRTKIGRTNAMKLFKLVA
modifications: Cupriavidus necator
B3: 27 (protein, listed as Aspergillus oryzae)
chain: MALGKIALEEAFALPRFEEKTRWWASLFSTDAETHVKEITDINKIRIEHADKHGVGYQILSYTAPGVQDIWDPVEAQALAVEINDYIAEQVRVNPDRFGAFATLSMHNPKEAADELRRCVEKYGFKGALVNDTQRAGPDGDDMIFYDNADWDIFWQTCTELDVPFYMHPRNPTGTIYEKLWADRKWLVGPPLSFAHGVSLHVLGMVTNGVFDRHPKLQIIMGHLGEHVPFDMWRINHWFEDRKKLLGLAETCKKTIRDYFAENIWITTSGHFSTTTLNFCMAEVGSDRILFSIDYPFETFSDACEWFDNAELNGTDRLKIGRENAKKLFKLDSYKDSSA
B4: 25 (protein, listed as Acidovorax avenae)
chain: MAQGKIGLEEHFAIPETLQDSAGFVPGDYWKELSLRLLDIHERRLREMDENGMEMMILSLNAPAVQAIPDTKKAVEIAVRANDFLAEQVARRPDRFQAFAALPMQDPDLATRELERCMQDLGFRGALVNGFSQVGTPENVVYYDAPQYGDFWAAVERLDAPFYLHPRNPIASWAQIYQGHPWLMGPTWAFAQETAVHALRLMASGLFDRHPGLRIILGHLGEGLPYNMWRVDHRNAWVDMPKGYPAKRKLCDYFHENFYLTTSGNFRTQTLIDALLEVGADRILFSTDWPFENVDHAAHWFDDAAISEADRLKIGRTNALSLFKLPQG
B5: 24 (protein)
chain: MALGKVVLEEAYERPNMKEKSNHEAGLYIAPNDRPRYMRQINDINQERLKLADAHGVGYTIISLTVPGIQGIFDKTEAERVATETNNWAAEQIKNHRDRLGAFACLSMHDPAQAANELRRCVQELGFHGALLCSFQHAGPDGETYLFYDQPKYDVFWKALTELDVPLYIHPAAPTGSILERLYAQRPALIGPPLSFANDVSLHTLGIISNGVFDRFPNLKIIIGHLGEHIPFDFWRIDHWFRDVKKPIADEEGRVMAQKSLYHYFKHNIWLTTSGHFSTPTLKYVVNEIGVDRVLFSVDYPYETTESGCNWWDHDKDAIVEAVGGVDNYYAIGRENAKKLLRLDKFHDSDAR
modifications: Aspergillus niger
B6: 35 (protein)
chain: MAFKASRKIALEEHFAIDATVQDSAGFVPPSYWAELKRRLLDIHDRRIDEMDRNGVELMVLSLNAPTVQAVPNIKDAYDLSRRANDFLAEQIVKRPERFKGFAALPMQSPDLAARELERCVKELNFVGALVNGFSQVEESGTALYYDLPQYRQFWSVVQALDVPFYLHPRNPLPAHAPIYEGHPWLLGPTWAFGQETAVHALRLMGSGLFDEYPELKIILGHMGEGLPYSMWRIDNRNAWVETQPNYPAKKRIAEYFHKNFWLTTSGNFRTQTLIDAMLEIGSDRILFSTDWPFENVDHAAQWFDDAAISENDRIKIARTNAARLFKLEP
modifications: Burkholderia sp
B7: 30 (protein)
chain: MARGKIALEEHVSTPENNRLWDSTGEANRNGSEYMQDVERRLLDRSIQLEEMAQRNIDHVILSLTSPGAQSILDKAKAVSFARDTNDFIVDNYVKPNPDKFSAFATLALQNPEAAAEELERAVKKLGMKGALINGYTNVKDSEHGLYLDDESMLVFWDKVNELNVPVYLHPREPLEGPARGIYTGYESLIGSAWGFAQETAVHAIRLMMSGLFDRYPNLNLVLGHLGEGLVHMLPRTQHRLYRQRFGCGLGKAEKPLMHYLQNNFIVTTSGHFNTHSLNNAIEVMGADRVMFSVDYPYEDIHQACDWFDPLEMDEGLKEKIAWGNASRVFNIK
modifications: Enterobacter aerogenes
B8: 21 (protein, listed as Agrobacterium tumefaciens)
chain: MAQGKVALEEHFAIPETLQDSAGFVPGDYWKELQHRLLDIQDTRLKLMDAHGIETMILSLNAPAVQAIPDRKKAIEIARRANDVLAEECARRPDRFLAFAALPLQDPDAATQELQRCVNDLGFVGALVNGFSQEGDGQTPLYYDLPQYRPFWGEVEKLDVPFYLHPRNPLPQDSRIYDGHPWLLGPTWAFAQETAVHALRLMASGLFDAHPRLNIILGHMGEGLPYMMWRIDHRNAWVKLPPRYPAKRRFVDYFNENFHITTSGNFRTQTLIDAILEIGADRILFSTDWPFENIDHASDWFNATTIAEADRVKIGRTNARRLFKLDGR
B9: 31 (protein, listed as Agrobacterium sp.)
chain: MAQGKVALEEHFAIPETLQDSAGFVPGDYWKELQHRLLDIQDTRLKLMDAHGIETMILSLNAPAVQAIPDKTKAIEIARRANDVLAEECAKRPDRFLAFAALPLQDPDAATEELQRCVNDLGFVGALVNGFSQEGDGQTPLYYDLPQYRPFWGEVEKLDVPFYLHPRNPLPQDSRIYDGHPWLLGPTWAFAQETAVHALRLMASGLFDEHPRLNIILGHMGEGLPYMMWRIDHRNAWVKLPPRYPAKRRFMDYFNENFHITTSGNFRTQTLIDAILEIGADRILFSTDWPFENIDHASDWFNATSIAEADRVKIGRTNARRLFKLDGA
B10: 36 (protein, listed as Agrobacterium sp.)
chain: MAQGKVALEEHFAIPETLQDSAGFVPGDYWTELQHRLLDIQDTRLKLMDAHGIETMILSLNAPAVQAIPDKTKAIEIARRANDALAEECAKRPNRFLAFAALPLQDPDAATQELQRCVNDLGFVGALVNGFSQEGDGQIPLYYDLPQYRPFWGEVEKLDVPFYLHPRNPLPQDSRIYDGHPWLLGPTWAFAQETAVHALRLMASGLFDEHPRLNIILGHMGEGLPYMMWRIDHRNAWVKLPPRYPAKRRFVDYFNENFHITTSGNFRTQTLIDAILEIGADRILFSTDWPFENIDHASDWFHATSIAEADRVKIGRTNARRLFKLDGR
B11: 23 (protein, listed as Aplysina aerophoba)
chain: MAIDIDARSQPGLETARRAMSRRDFLGGAAAFGITAAATTALPASTAAGEEEDLFLLGLEEHFATAELRRLNGIQFPQGTPRFDINDVGAGRIADMDAAGIDIQVLSALTPGAQNLPGAEGVAYARRLNSWVAHEVIPAYPGRFRAFATLPLSEPQAAADELEYAVRELGFLGCMTYGAVDGKFLDHADFVPVLARAETLDVPIYIHPNWASPQVMDTYYNGLGNEWVSRVLSGAGYGWHQEVALQCLRMIASGVFDRFPRLQIIVGHMGEGLPFFYWRFGDDLARITADTLEKPVQQYFHDNFWITTSAFFRDELLRLVLSVMGEDRVMFAVDYPFVSNKVGADWFRAVDLPRNVKEKIAHKNAERLLKIGPF
B12: 26 (protein, listed as Variovorax paradoxus)
chain: MATHMAPMKNKIALEEHFAIDLTIADSQVYARPEVWQGLKSNLLDFEQQRLEKMDEWGTEFSILSLNSPAVQGIPDAKRAIEVAQRANDVLAEQVKRHPTRFGGFAALPMQDPEASARELERCVNQLGFHGFLVNGFSQVGDENIVVYYDDARFNDFWTAAAALKKPFYMHPRDPLLAREPIYDGAHWLTGPTWAFAMETAIHALRLMSSGMFDRHPALQMILGHFGEGIPFNIWRVDHILRKGRRGMPCDKEIGEYLRSNVHITTSGNFRTPTLLSTMLEVGSDRIMYSVDYPFEKHEDAARWFDTCEISENDRQKIGRDNARKLFGLK
B13: 28 (protein, listed as Sphingomonas paucimobilis)
chain: MARLIATEEAVTFQPVVDALRAHSRTDDASLDMILVRDVYGDEPARPAMIGRLSDVTGERLAEMDSNGVDMHLLSLTAPGVQMFDAETGTRLARIANDLMAQTVAANPTRFAGLGTFAPQDPASAAREIERVATQLRLNGLVINSHTNDLYYDDPFFHPVFEAIEASGLALYIHPRAPSKQIDRAFRDYGMNSAIWGYGIETSTNAVRMILSGLFDRFPRLKIVLGHMGEAIPFWLWRLDYMHGNATTFGGAPKLKLKPSEYFRRNFAITTSGVESHAALRYSIEVLGPENVMWAIDYPYQPMAPAVQFIRTAPIPEDVKAMVAGGNAARIFRIT
B14: 22 (protein, listed as Staphylococcus epidermidis)
chain: MAKSINFEEHYVVDDIQKETMKYMSSDPNGVPMQTMLKGLEQKSGFTNADDITKHDERIKFMDEHDVEMQVLSYGNGAPSNLEGERAIELCQQANDTLAKYVNEHPDRFVGFATLPINEPQAAVEEFKRCIKELGFKGALIMGHPKNGFLDQDQYDDLFATAEALNVPIYLHPSPVQSDVYQAYYKGNYSDVTAATFACFGYGWHVDVGIHAIHLVLSGVFDRHPNLNMIIGHWGEFVPFFLERMDDILFADHLEHPISYYFKNNFYITPSGMLTKPQFDLVKAEVGVDRILYSADYPYVEPDKLGTFLDELDLTEEEKEKISYKNGAKLLGLEK
B15: 29 (protein, listed as Pseudovibrio sp.)
chain: MAGRRDFLRKSVAAGVGLTAAAQLSAGGAQATVPDTSNIPLITLEEHFTTPELQSKNTSGDKRLFSGGGSRPELLDVGAGRIADMDEAGIDIQVLSTVTPGASKITGAEGVEFTRKFNTWIAEEVIAAYPNRFRAFATLPLSSPEAAADELERSVREYGFVGTMTYGPIDGKFLDHADYAPLLARAEALGVPIYIHPNWPSPTAMQAYYDGLGDDLTSRILSGPGYGWHQEIAVQCLRLIVGGVFDRFPNLQIVVGHMGEGLPFYYWRVGEDLDRIAQKRLQKPVQQYFHDNLWITTSAFFRDELLNLALATMGEDRVMFSVDYPMASAKVGADWLRAADIPLATKEKIGSKNAMKLLGIDKI

This experiment can be described thus: Saturation mutagenesis of SEQ ID NO:109: dicamba decarboxylation activity of point mutants (CO2 released), fold of backbone (Tables 7, 8, Megatable 1). Conditions: decarboxylation activity (CO2 released) of point mutant vs unmutated backbone protein; backbone SEQ ID NO: 109.
As for B1, the “Fold Activity” value was determined as 1.6 fold. As for B2, the “Fold Activity” value was 1.6 fold. On to B3, for which the “Fold Activity” value worked out at 1 fold. In the case of B4, the “Fold Activity” value came out at 1 fold. With B5, the “Fold Activity” value was determined as 1.6 fold. In the case of B6 it was 2.2 fold; in that of B7, 2 fold. For B8, the “Fold Activity” value was 1.9 fold.

For the molecule B9, the “Fold Activity” value is given as 1.7 fold. In the case of B10, the “Fold Activity” value is listed as 2 fold. For B11, the “Fold Activity” value turned out to be 1.5 fold. With B12, the “Fold Activity” value is 1.2 fold. For the molecule B13, the “Fold Activity” value was found to be 1.2 fold.

For B14, the “Fold Activity” value came to 1.6 fold.

As to B15, the “Fold Activity” value came out at 1.5 fold.
